Substrate: Nc1nc2c(ncn2[C@H]2C[C@H](O)[C@@H](COP(=O)(O)O)O2)c(=O)[nH]1
Assay: purified protein, by the assay type
Settings: other: substrate of human DNPH1; double reciprocal plots, five concentrations; pH 7.0

B1: human DNPH1 (Homo sapiens) (protein)
chain: MAAAMVPGRSESWERGEPGRPALYFCGSIRGGREDRTLYERIVSRLRRFGTVLTEHVAAAELGARGEEAAGGDRLIHEQDLEWLQQADVVVAEVTQPSLGVGYELGRAVAFNKRILCLFRPQSGRVLSAMIRGAADGSRFQVWDYEEGEVEALLDRYFEADPPGQVAASPDPTT
Km: 57 ± 12 µM | kcat: 0.002 s⁻¹ | kcat/Km: 35 M⁻¹ s⁻¹

Source: PMC3834327, “N ^6-Substituted AMPs Inhibit Mammalian Deoxynucleotide N-Hydrolase DNPH1” (PLoS ONE, 2013)
